B1: Hu2117HK-Mu01 (Fc fusion)
scFv: EVQLVESGGGLVQPGGSLRLSCAASGFTYSSYGMSWVRQAPGKGLEWVASISGGGSYTKYPDSVKGRFTISRDNSKNTLYLQMNSLRAEDTAVYYCARDYAGFFDVWGQGTLVTVSSGGGGSGGGGSGGGGSDIQMTQSPSSLSASVGDRVTITCRSSQSLVHSNGNTYLHWYQQKPGKSPKLLIYKVSNRFSGVPSRFSGSGSGTDFTLTISSLQPEDFATYFCSQSTHVPYTFGQGTKVEIK
notes: scFv-hIgG1 Fc; not shown: human IgG1 Fc
B2: Hu2117HK-Mu14 (Fc fusion)
scFv: B1 scFv with D62G, S180A
notes: as for B1
B3: Hu2117HK-Mu17 (Fc fusion, name in Kabat numbering)
scFv: B1 scFv with N165I, S180A
notes: as for B1
B4: Hu2117HK-Mu10 (Fc fusion)
scFv: B1 scFv with P61V, S180A
notes: as for B1
B5: Hu2117HK-Mu23 (Fc fusion)
scFv: B1 scFv with G166A, S180A
notes: as for B1
B6: Hu2117HK-Mu29 (Fc fusion)
scFv: B1 scFv with V162L, S180A
notes: as for B1
B7: Hu2117HK-Mu24 (Fc fusion)
scFv: B1 scFv with G166I, S180A
notes: as for B1
B8: Hu2117HK-Mu18 (Fc fusion, name in Kabat numbering)
scFv: B1 scFv with N165L, S180A
notes: as for B1
B9: Hu2117HK-Mu28 (Fc fusion)
scFv: B1 scFv with G166T, S180A
notes: as for B1
B10: Hu2117HK-Mu05 (Fc fusion)
scFv: B1 scFv with Y29F, S180A
notes: as for B1
B11: Hu2117HK-Mu16 (Fc fusion, name in Kabat numbering)
scFv: B1 scFv with N165G, S180A
notes: as for B1
B12: Hu2117HK-Mu30 (Fc fusion, not shown: a dimerising Fc or GST; small tags and cut ends)
scFv: B1 scFv with H163D, S180A
notes: scFv-hIgG1 Fc
B13: Hu2117HK-Mu11 (Fc fusion)
scFv: B1 scFv with S180A, F192D
notes: as for B1
B14: Hu2117HK-Mu27 (Fc fusion)
scFv: B1 scFv with G166R, S180A
notes: as for B1
B15: Hu2117HK-Mu07 (Fc fusion, name in Kabat numbering)
scFv: B1 scFv with K59Y, S180A
notes: as for B1
B16: Hu2117HK-Mu22 (Fc fusion, name in Kabat numbering)
scFv: B1 scFv with N165V, S180A
notes: as for B1
B17: Hu2117HK-Mu25 (Fc fusion)
scFv: B1 scFv with G166S, S180A
notes: as for B1
B18: Hu2117HK-Mu12 (Fc fusion)
scFv: B1 scFv with S180A, F192P
notes: as for B1
B19: Hu2117HK-Mu08 (Fc fusion)
scFv: B1 scFv with P61A, S180A
notes: as for B1
B20: Hu2117HK-Mu21 (Fc fusion, name in Kabat numbering)
scFv: B1 scFv with N165T, S180A
notes: as for B1
B21: Hu2117HK-Mu20 (Fc fusion, name in Kabat numbering)
scFv: B1 scFv with N165S, S180A
notes: as for B1
B22: Hu2117HK-Mu04 (Fc fusion)
scFv: B1 scFv with M136L, S180A
notes: as for B1
B23: Hu2117HK-Mu02 (Fc fusion)
scFv: B1 scFv with S180A, T222V
notes: as for B1
B24: Hu2117HK-Mu09 (Fc fusion)
scFv: B1 scFv with P61G, S180A
notes: as for B1
B25: Hu2117HK-Mu19 (Fc fusion, name in Kabat numbering)
scFv: B1 scFv with N165Q, S180A
notes: as for B1
B26: Hu2117HK-Mu06 (Fc fusion)
scFv: B1 scFv with A49S, S180A
notes: as for B1
B27: Hu2117HK-Mu13 (Fc fusion)
scFv: B1 scFv with S180A, F224Y
notes: scFv-hIgG1 Fc; also called Hu2117HK-Mul3; not shown: human IgG1 Fc
B28: Hu2117HK-Mu03 (Fc fusion)
scFv: B1 scFv with I134V, S180A
notes: as for B1

Substitutions are numbered along the chain they refer to.

The target of the assay is T1, recombinant human HER2 extracellular domain protein (human, UniProt P04626 23-652).
T1 construct: range 23-652; Range is printed for the immunogen/panning protein; also called ErbB2; recombinant HER2 protein
In words: BLI, Protein A capture.
Turning to B1, the Kd (in general, the concentration at which binding is half-saturated) was found to be 8.33 nM; the koff – broadly, the rate constant with which the complex falls apart – turned out to be 0.000718 s⁻¹; the kon (in general, the second-order rate constant of association) stood at 86200 M⁻¹ s⁻¹.

In the case of B2, the Kd worked out at 7.16 nM, the koff was found to be 0.000624 s⁻¹ and the association rate constant (kon) turned out to be 87200 M⁻¹ s⁻¹.

Take B3: the Kd is 14.9 nM, the koff was 0.000738 s⁻¹ and the association rate constant (kon) was found to be 49500 M⁻¹ s⁻¹.

Consider B4, for which the equilibrium dissociation constant (Kd) was determined as 7.05 nM, the koff worked out at 0.000546 s⁻¹ and the kon was found to be 77400 M⁻¹ s⁻¹.

Consider B5, for which the dissociation constant Kd turned out to be 6.67 nM, the koff was determined as 0.000542 s⁻¹ and the on-rate constant (kon) was determined as 81200 M⁻¹ s⁻¹.

For B6, the dissociation constant Kd was found to be 7.62 nM, the koff came out at 0.000668 s⁻¹ and the kon amounted to 87700 M⁻¹ s⁻¹.

Turning to B7, the Kd was 6.65 nM, the koff came out at 0.000423 s⁻¹ and the on-rate (kon) came out at 63700 M⁻¹ s⁻¹.

As to B8, the Kd is 11.4 nM, the koff came out at 0.000483 s⁻¹ and the on-rate (kon) amounted to 42600 M⁻¹ s⁻¹.

B9: the Kd stood at 7.15 nM, the off-rate (koff) worked out at 0.000592 s⁻¹ and the kon turned out to be 82800 M⁻¹ s⁻¹.

On to B10, for which the Kd stood at 6.76 nM, the koff was found to be 0.000529 s⁻¹ and the kon amounted to 78300 M⁻¹ s⁻¹.

As to B11, the Kd turned out to be 8.76 nM, the off-rate (koff) stood at 0.00051 s⁻¹ and the kon worked out at 58200 M⁻¹ s⁻¹.

For B12, the Kd is 8.27 nM, the koff was 0.000301 s⁻¹ and the kon turned out to be 36400 M⁻¹ s⁻¹.

With B13, the Kd was found to be 9.41 nM, the off-rate constant (koff) amounted to 0.000803 s⁻¹ and the kon is 85400 M⁻¹ s⁻¹.

Take B14: the Kd stood at 7.38 nM, the dissociation rate constant (koff) is 0.000592 s⁻¹ and the kon was found to be 80200 M⁻¹ s⁻¹.

As for B15, the dissociation constant Kd was 11.7 nM, the koff worked out at 0.000465 s⁻¹ and the association rate constant (kon) was 39800 M⁻¹ s⁻¹.

As to B16, the Kd amounted to 13.4 nM, the off-rate constant (koff) is 0.00059 s⁻¹ and the kon is 43900 M⁻¹ s⁻¹.

With B17, the equilibrium dissociation constant (Kd) stood at 6.73 nM, the off-rate constant (koff) stood at 0.00056 s⁻¹ and the kon came to 83100 M⁻¹ s⁻¹.

With B18, the Kd turned out to be 6.4 nM, the off-rate constant (koff) came to 0.000453 s⁻¹ and the kon was found to be 70800 M⁻¹ s⁻¹.

B19: the Kd was found to be 6.65 nM, the koff turned out to be 0.000495 s⁻¹ and the on-rate (kon) is 74500 M⁻¹ s⁻¹.

On to B20, for which the Kd is 12 nM, the off-rate constant (koff) came out at 0.00056 s⁻¹ and the on-rate (kon) was determined as 46800 M⁻¹ s⁻¹.

In the case of B21, the Kd was 13.3 nM, the koff was determined as 0.000616 s⁻¹ and the kon came out at 46500 M⁻¹ s⁻¹.

For B22, the equilibrium dissociation constant (Kd) was 9.88 nM, the off-rate constant (koff) was 0.000895 s⁻¹ and the kon came out at 90600 M⁻¹ s⁻¹.

Turning to B23, the Kd was 8.32 nM, the koff was determined as 0.000737 s⁻¹ and the kon worked out at 88600 M⁻¹ s⁻¹.

As for B24, the dissociation constant Kd was 6.38 nM, the off-rate constant (koff) was determined as 0.000468 s⁻¹ and the kon worked out at 73400 M⁻¹ s⁻¹.

Regarding B25, the dissociation constant (Kd) came to 13.9 nM, the off-rate (koff) was 0.000837 s⁻¹ and the association rate constant (kon) amounted to 60100 M⁻¹ s⁻¹.

With B26, the Kd was found to be 8.18 nM and the on-rate (kon) is 82600 M⁻¹ s⁻¹.

Regarding B27, the Kd worked out at 6.05 nM, the off-rate constant (koff) turned out to be 0.000484 s⁻¹ and the kon is 80100 M⁻¹ s⁻¹.

Consider B28, for which the Kd turned out to be 8.69 nM, the koff is 0.00071 s⁻¹ and the kon was found to be 81600 M⁻¹ s⁻¹.

The record behind these values is patent publication EP4725969A1 (Latticon (Suzhou) Biopharmaceuticals Co., Ltd., dated 2024).
